Consider 26 sequences from the supplement of paper PMC9732359.

± gives the uncertainty stated by the source.

The data set can be described thus: protein stability index of a GFP-peptide fusion (yeast GPS) (PSI 1-4); higher = more stable; sorted into four equal gates, so the index is relative within each strain. The essentials:
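Sequencing reads from sorted gates were used to score each peptide. The library consisted of tiled 17-residue yeast protein peptides fused downstream of GFP on a Cherry-expressing plasmid, pooled and carried in yeast. Mid-log cultures in leucine-free medium were split into four equal gates by GFP/Cherry ratio, and each gate's plasmids were PCR-amplified and Illumina-sequenced. The protein stability index adds up, over all gates, the read frequency multiplied by the gate number.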

As for WKATYSNEFKCMSVITA [YGL100W/SEH1], the protein stability index amounted to 1.87 ± 0.056 (doa10∆), 1.64 ± 0.051 (pdr5∆), 1.51 ± 0.073 (san1∆) and 2.07 ± 0.032 (ubr1∆).

Take DTLKDISTSFCFICLLH [BRN1]: the protein stability index is 2.01 ± 0.081 (doa10∆), 2.44 ± 0.072 (pdr5∆), 2.27 ± 0.14 (san1∆) and 1.95 ± 0.083 (ubr1∆).

As to AEKELEAEIECFDSTTG [RRP40], the protein stability index worked out at 3.21 ± 0.17 (doa10∆), 3.06 ± 0.14 (pdr5∆), 3.05 ± 0.1 (san1∆) and 2.66 ± 0.14 (ubr1∆).

On to GELFLNESWKSSFEKFN [SRP72], for which the protein stability index stood at 3.23 ± 0.23 (doa10∆), 3.22 ± 0.11 (pdr5∆), 2.79 ± 0.12 (san1∆) and 3.24 ± 0.073 (ubr1∆).

As to TKDIFPLQNIHVRKVKL [RPS1A], the protein stability index (doa10∆) was determined as 2.4 ± 0.084, the protein stability index (pdr5∆) turned out to be 2.81 ± 0.097, the protein stability index (san1∆) turned out to be 2.6 ± 0.072 and the protein stability index (ubr1∆) was 2.84 ± 0.09.

For the sequence SFRIKQKMAKAKKQNRP [RPL39], the protein stability index amounted to 2.47 ± 0.17 (doa10∆), 2.78 ± 0.097 (pdr5∆), 2.93 ± 0.091 (san1∆) and 2.93 ± 0.092 (ubr1∆).

Turning to DFGFDLDIEKEAPAGNI [MCD1], the protein stability index is, setting by setting: (doa10∆) 2.76 ± 0.26; (ubr1∆) 3.3 ± 0.15.

For SVKFTHIAHTLPEKVNF [SSN2], the protein stability index is, setting by setting: (doa10∆) 2.17 ± 0.05; (pdr5∆) 2.28 ± 0.042; (san1∆) 2.2 ± 0.066; (ubr1∆) 1.92 ± 0.029.

For NMNNGGKELDSLDLNNL [PGD1], the protein stability index is, setting by setting: (doa10∆) 3.06 ± 0.11; (pdr5∆) 3.24 ± 0.11; (san1∆) 3.06 ± 0.079; (ubr1∆) 3.26 ± 0.065.

The sequence IGTADIFIRQLKENEEN [BRR2] gave a protein stability index (doa10∆) of 3.61 ± 0.12, a protein stability index (pdr5∆) of 3.1 ± 0.3 and a protein stability index (ubr1∆) of 1.36 ± 0.1.

With SEEVDDLSMVPKMKDEE [SNF2], the protein stability index runs as follows: (doa10∆) 2.78 ± 0.17; (san1∆) 3.29 ± 0.12; (ubr1∆) 3.59 ± 0.22.

FPVSLSQPSKKSFANHT [SIR4] yielded a protein stability index (doa10∆) of 2.82 ± 0.051, a protein stability index (pdr5∆) of 2.87 ± 0.046, a protein stability index (san1∆) of 3.01 ± 0.054 and a protein stability index (ubr1∆) of 3 ± 0.039.

Turning to PLSDLKKRSQAKMNAKT [RPC82], the protein stability index worked out at 3.21 ± 0.08 (doa10∆), 3.4 ± 0.081 (pdr5∆), 3.05 ± 0.066 (san1∆) and 3.32 ± 0.045 (ubr1∆).

As to LHQHVVLKCLKSLESQR [RPC34], the protein stability index was determined as 2.77 ± 0.11 (doa10∆), 2.58 ± 0.083 (pdr5∆), 2.41 ± 0.095 (san1∆) and 2.53 ± 0.11 (ubr1∆).

In the case of TKLTTCKRELAFVKQKN [YIL149C/MLP2], the protein stability index is, setting by setting: (doa10∆) 1.84 ± 0.078; (pdr5∆) 1.81 ± 0.086; (san1∆) 1.54 ± 0.11; (ubr1∆) 1.48 ± 0.071.

On to YQSPTIFKIVQSRLMST [MED6], for which the protein stability index is 1.71 ± 0.1 (doa10∆), 1.59 ± 0.13 (pdr5∆) and 1.96 ± 0.094 (ubr1∆).

As for DEPDEQGNPKKRPGKLS [CYT1], the protein stability index stood at 3.45 ± 0.15 (pdr5∆), 3.24 ± 0.16 (san1∆) and 3.44 ± 0.089 (ubr1∆).

Sequence LQKEKELHKEGTISKLE [SMC2] came in with a protein stability index (doa10∆) of 2.89 ± 0.075, a protein stability index (pdr5∆) of 3.08 ± 0.08, a protein stability index (san1∆) of 1.83 ± 0.06 and a protein stability index (ubr1∆) of 2.5 ± 0.05.

As to RQKINGCEANIHSLVKQ [YIL149C/MLP2], the protein stability index is, setting by setting: (doa10∆) 3.12 ± 0.14; (pdr5∆) 3.33 ± 0.13; (san1∆) 2.98 ± 0.22; (ubr1∆) 2.79 ± 0.21.

Consider LLPPIKIELIKNNLLIP [RPN12], for which the protein stability index is, setting by setting: (doa10∆) 2.16 ± 0.071; (pdr5∆) 2.24 ± 0.062; (san1∆) 1.75 ± 0.11; (ubr1∆) 2.09 ± 0.044.

For LAGKRGPKSGSTMGTPT [PGD1], the protein stability index (doa10∆) turned out to be 3.35 ± 0.061, the protein stability index (pdr5∆) came out at 2.95 ± 0.05, the protein stability index (san1∆) is 2.6 ± 0.096 and the protein stability index (ubr1∆) stood at 3.19 ± 0.046.

As for NDAMAGGFTAYGGADYG [RPO21], the protein stability index is 1.78 ± 0.083 (doa10∆), 1.91 ± 0.066 (pdr5∆), 1.92 ± 0.1 (san1∆) and 1.86 ± 0.074 (ubr1∆).

On to VFVGTIFAGAFVFQTVF [QCR9], for which the protein stability index (doa10∆) turned out to be 1.82 ± 0.061, the protein stability index (pdr5∆) came to 1.4 ± 0.049, the protein stability index (san1∆) amounted to 1.23 ± 0.11 and the protein stability index (ubr1∆) came to 1.5 ± 0.043.

For the sequence SIMVELKLPLEINYAFS [SIR3], the protein stability index by setting is: (doa10∆) 1.31 ± 0.077; (pdr5∆) 1.64 ± 0.064; (san1∆) 1.55 ± 0.12; (ubr1∆) 1.5 ± 0.058.

Turning to LNHVVSLIENKKAKLVL [RPL8B], the protein stability index was determined as 2.46 ± 0.088 (doa10∆), 3.54 ± 0.17 (pdr5∆), 2.98 ± 0.1 (san1∆) and 2.83 ± 0.1 (ubr1∆).

Take LSDRITGNFIIPSGNVW [PRP8]: the protein stability index is, setting by setting: (doa10∆) 2.76 ± 0.1; (pdr5∆) 3.1 ± 0.087; (san1∆) 2.84 ± 0.064; (ubr1∆) 2.9 ± 0.065.
